Measurements as given in patent publication US20220259294A1 (published 2022).

T1: IHF from Haemophilus influenzae (Hi) (Haemophilus influenzae)
T1 chain: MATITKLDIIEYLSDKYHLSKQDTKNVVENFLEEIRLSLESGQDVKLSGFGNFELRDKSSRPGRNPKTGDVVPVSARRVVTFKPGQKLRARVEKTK


How the values were obtained:
[1] = target: T1, IHF from Haemophilus influenzae (Hi); assay: ELISA
[2] = target: T2, IHF from Klebsiella pneumoniae (Kp) (Klebsiella pneumoniae); assay: ELISA
T2 construct: Recombinant, His-tagged, made in HEK293 cells; also called IHF (Kp)
T2 sequence (A6TAI1 whole entry, chain 1 of 2): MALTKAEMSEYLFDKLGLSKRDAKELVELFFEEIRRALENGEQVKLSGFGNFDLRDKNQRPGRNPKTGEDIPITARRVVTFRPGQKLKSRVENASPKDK
T2 sequence (A6T704 whole entry, chain 2 of 2, further chain): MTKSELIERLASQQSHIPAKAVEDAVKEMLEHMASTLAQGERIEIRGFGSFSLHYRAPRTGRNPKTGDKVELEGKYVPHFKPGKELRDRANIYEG

[3] = target: T1, IHF from Haemophilus influenzae (Hi); assay: ForteBio Octet QK biosensor (BLI), ratio of on and off rates
[4] = target: T2, IHF from Klebsiella pneumoniae (Kp); assay: as above

| Binder | OD [1] | OD [2] | Kd [3] | Kd [4] |
| --- | --- | --- | --- | --- |
| TRL1216 (antibody, V domains shown) VH: QVQLVESGGGVVQPGGSLRVSCAASAFSFRDYGIHWVRQAPGKGLQWVAVISHDGGKKFYADSVRGRFTISRDNSENTLYLQMNSLRSDDTAVYYCARLVASCSGSTCTTQPAAFDIWGPGTLVTVSS VL: DIMLTQPPSVSVSPGQTARITCSGDALPKKYTYWYQQKSGQAPVLLIYEDRKRPSEIPERFSAFTSWTTATLTITGAQVRDEADYYCYSTDISGDIGVFGGGTKLTVL | 0.06 OD | 0.4 OD |  |  |
| TRL1070 (antibody, V domains shown) VH: QVQLVQSGGTLVQPGGSLRLSCAASGFTFSYYSMSWVRQAPGKGLEWVANIKHDGTERNYVDSVKGRFTISRDNSEKSLYLQMNSLRAEDTAVYYCAKYYYGAGTNYPLKYWGQGTRVTVSS VL: DILMTQSPSSLSASVGDRVTITCRASQGIRNDLGWYQQKPGKAPKLLIYAASSLQSGVPSRFSGSGSGTDFTLTISSLQPEDFATYYCLQDYNYPLTFGGGTKVEIKR | 0.11 OD | 0.5 OD |  |  |
| TRL1087 (antibody, V domains shown) VH: QVQLLESGPGLVRPSDTLSLTCTFSADLSTNAYWTWIRQPPGKGLEWIGYMSHSGGRDYNPSFNRRVTISVDTSKNQVFLRLTSVTSADTAVYFCVREVGSYYDYWGQGILVTVSS VL: DIEMTQSPSSLSASVGDRITITCRASQGISTWLAWYQQKPGKAPKSLIFSTSSLHSGVPSKFSGSGSGTDFTLTITNLQPEDFATYYCQQKWETPYSFGQGTKLDMIR | 0.06 OD | 0.06 OD |  |  |
| TRL1215 (antibody, V domains shown) VH: QVQLVESGTEVKNPGASVKVSCTASGYKFDEYGVSWVRQSPGQGLEWMGWISVYNGKTNYSQNFQGRLTLTTETSTDTAYMELTSLRPDDTAVYYCATDKNWFDPWGPGTLVTVSS VL: DIVMTQSPSASGSPGQSITISCTGTNTDYNYVSWYQHHPGKAPKVIIYDVKKRPSGVPSRFSGSRSGNTATLTVSGLQTEDEADYYCVSYADNNHYVFGSGTKVTVL | 1.9 OD | 1.6 OD |  |  |
| TRL1218 (antibody, V domains shown) VH: QVQLLESGADMVQPGRSLRLSCAASGFNFRTYAMHWVRQAPGKGLEWVAVMSHDGYTKYYSDSVRGQFTISRDNSKNTLYLQMNNLRPDDTAIYYCARGLTGLSVGFDYWGQGTLVTVSS VL: DIVLTQSASVSGSPGQSITISCTGTSSDVGGYNYVSWYQQHPGKAPKLMIYDVTTRPSGVSDRFSGSKSGNTASLTISGLQAEDEADYYCSSYSSGSTPALFGGGTQLTVL | 0.04 OD | 0.06 OD |  |  |
| TRL1230 (antibody, V domains shown) VH: QVQLVQSGGGLVKPGGSLRLSCGASGFNLSSYSMNWVRQAPGKGLEWVSSISSRSSYIYYADSVQGRFTISRDNAKNSLYLQMNSLRAEDTAIYYCARVSPSTYYYYGMDVWGQGTTVTVSS VL: DIVLTQPSSVSVSPGQTARITCSGDELPKQYAYWYQQKPGQAPVLVIYKDNERPSGIPERFSGSSSGTTVTLTISGVQAEDEADYYCQSADSSGTYVVFGGGTKLTVL | 0.06 OD | 0.07 OD |  |  |
| TRL1232 (antibody, V domains shown) VH: QVQLVESGAEVKKPGALVKVSCKASGYTFSGYYMHWVRQAPGQGLEWMGWINPKSGGTKYAQKFQGRVTMTRDTSISTAYMELSRLRSDDTAVYFCARGGPSNLERFLERLQPRYSYDDKYAMDVWGQGTTVTVSS VL: DIVMTQSPGTLSLSPGARATLSCRASQSVSSIYLAWYQQKPGQAPRLLIFGASSRATGIPDRFSGSGSGTDFTLTISRLEPEDFAVYYCQQYGSSPYTFGQGTKLEIKR | 0.1 OD | 0.1 OD |  |  |
| TRL1068 (antibody, V domains shown) VH: QVQLVESGPGLVKPSETLSLTCRVSGDSNRPSYWSWIRQAPGKAMEWIGYVYDSGVTIYNPSLKGRVTISLDTSKTRFSLKLTSVIAADTAVYYCARERFDRTSYKSWWGQGTQVTVSS VL: DIVLTQAPGTLSLSPGDRATLSCRASQRLGGTSLAWYQHRSGQAPRLILYGTSNRATDTPDRFSGSGSGTDFVLTISSLEPEDFAVYYCQQYGSPPYTFGQGTTLDIK |  |  | 350 nM | 7 nM |
